Experimental findings from publication PMC8376870 (2021) are described below.

The assay concerns the target GST-G511-V540 (TRPV6 S5 fragment) (Homo sapiens (Human), UniProt Q9H1D0). Put plainly: in vitro pull-down (GST/His-MBP) with western blot.

Chain of GST-G511-V540 (TRPV6 S5 fragment) (Q9H1D0 511-540): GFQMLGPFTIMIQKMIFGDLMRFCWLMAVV

B1: His-MBP-A603-L632 (TRPV6 S6 fragment) (protein)
chain: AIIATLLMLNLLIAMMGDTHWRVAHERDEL
On to B1, for which the binding result is on record as “binds”.
